{"source": "paper PMC3643934", "about": "“Identification and Characterization of the Direct Interaction between Methotrexate (MTX) and High-Mobility Group Box 1 (HMGB1) Protein” (PLoS ONE, 2013)", "details_in_all_cases": "both partners purified", "key": {"[1]": {"target": "T1, extracellular domain of RAGE (M1-A344) (UniProt Q15109 23-344)", "T1 construct": "signal peptide in the construct; receptor for advanced glycation end products (RAGE), extracellular domain, M1-A344 as printed; The results call it 'chimeric RAGE' without saying what it is fused to; the R&D Systems product with these limits is probably the human RAGE Fc chimera (surmise), in which the signal peptide would be removed on secretion; also called chimeric RAGE; receptor for advanced …", "T1 sequence (Q15109 23-344)": "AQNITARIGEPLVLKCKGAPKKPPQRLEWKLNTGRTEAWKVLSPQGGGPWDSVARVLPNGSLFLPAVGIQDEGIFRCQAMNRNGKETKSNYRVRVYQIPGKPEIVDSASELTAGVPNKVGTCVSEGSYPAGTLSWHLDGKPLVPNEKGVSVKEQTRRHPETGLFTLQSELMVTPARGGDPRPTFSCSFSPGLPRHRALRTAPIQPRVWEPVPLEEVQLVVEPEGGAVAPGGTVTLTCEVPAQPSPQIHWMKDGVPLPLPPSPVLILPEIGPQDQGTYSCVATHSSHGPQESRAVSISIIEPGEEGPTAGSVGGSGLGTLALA", "experiment": "SPR; Biacore 3000; RAGE immobilised on a CM5 chip by amine coupling up to 5000 RU; Bj 0.31-10 µM injected at 30 µl/min, 120 s association and 120 s dissociation; PBS, 25°C; no MTX; kinetic analysis by global fitting"}, "[2]": {"target": "T1, extracellular domain of RAGE (M1-A344)", "experiment": "SPR; same set-up, Bj 0.31-10 µM injected with 1 mM MTX; equilibrium responses (Req), Lineweaver-Burk plot, noncompetitive inhibition model"}, "[3]": {"target": "T1, extracellular domain of RAGE (M1-A344)", "experiment": "SPR; same set-up, no MTX; equilibrium responses (Req), concentration-response curve and Lineweaver-Burk plot"}}}
{"binder": "Bj protein (amino acid residues F88-K181 of HMGB1) (domain or fragment, Paper numbering starts at G1 (initiator Met removed), so entry number = paper number + 1 (F88-K181 -> 89-182; D157 -> D158; Y161 -> Y162). N-terminal 6xHis tag from pTrcHis omitted; expressed in E. …) FKDPNAPKRPPSAFFLFCSEYRPKIKGEHPGLSIGDVAKKLGEMWNNTAADDKQPYEKKAAKLKEKYEKDIAAYRAKGKPDAAKKGVVKAEKSK", "values": [{"measurement": "Kd", "setting": "[1]", "value": "3710 ± 1680", "unit": "nM"}, {"measurement": "koff", "setting": "[1]", "value": "0.00052 ± 0.25", "unit": "s⁻¹"}, {"measurement": "kon", "setting": "[1]", "value": "150 ± 0.01", "unit": "M⁻¹ s⁻¹"}, {"measurement": "Kd", "setting": "[2]", "value": 1390, "unit": "nM"}, {"measurement": "Kd", "setting": "[3]", "value": 1350, "unit": "nM"}]}
